Experimental data reported in patent US20190241662A1.
Where two headings read alike, the source gives them in different places.

What was measured:
[1] = biological target: full-length human CTLA4 expressed on cells (human) (UniProt P16410); experiment: flow cytometry, transfected HEK293F cells, 100 nM antibody
[2] = biological target: human LAG3 on HEK293F cells (human) (UniProt P18627); experiment: as above
[3] = biological target: human PD1 on HEK293F cells (human) (UniProt Q15116); experiment: as above
[4] = biological target: full-length human CTLA4 expressed on cells (human) (UniProt P16410); experiment: as above; remark: listed apart in the source
[5] = biological target: human LAG3 on HEK293F cells (human) (UniProt P18627); experiment: as above; remark: listed apart in the source
[6] = biological target: human PD-L1 on HEK293F cells (human) (UniProt Q9NZQ7); experiment: as above
[7] = biological target: human Tim3 on HEK293F cells (human) (UniProt Q8TDQ0); experiment: as above
[8] = biological target: human B7H3 on HEK293F cells (human) (UniProt Q5ZPR3); experiment: flow cytometry, transfected HEK293F cells, 100 nM antibody [Cont.]
[9] = biological target: human Tim3 on HEK293F cells (human) (UniProt Q8TDQ0); experiment: as above
[10] = biological target: full-length mouse CTLA4 expressed on HEK293F cells (mouse) (UniProt P09793); experiment: flow cytometry, transfected HEK293F cells, antibody concentration not printed [Cont.]
[11] = biological target: full-length human CTLA4 expressed on cells (human) (UniProt P16410); experiment: flow cytometry, activated human CD4+ T cells, APC-labelled antibody; lower right quadrant 0%
[12] = biological target: CTLA4 on activated monkey T cells; experiment: flow cytometry, activated monkey CD4+ T cells, APC-labelled antibody; lower right quadrant […]
[13] = biological target: CTLA4 on activated mouse T cells (mouse) (UniProt P09793); experiment: flow cytometry, activated mouse CD4+ T cells, APC-labelled antibody; lower right quadrant 0.043%
Sequence of CTLA4 on activated mouse T cells (mouse) (P09793 36-223 limits assumed): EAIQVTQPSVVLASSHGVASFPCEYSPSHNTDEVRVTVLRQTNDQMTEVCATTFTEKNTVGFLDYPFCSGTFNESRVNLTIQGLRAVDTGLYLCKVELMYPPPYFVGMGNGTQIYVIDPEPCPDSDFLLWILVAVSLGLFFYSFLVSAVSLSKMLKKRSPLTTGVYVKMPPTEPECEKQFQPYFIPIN

Sequence of human LAG3 on HEK293F cells (human) (P18627 23-525): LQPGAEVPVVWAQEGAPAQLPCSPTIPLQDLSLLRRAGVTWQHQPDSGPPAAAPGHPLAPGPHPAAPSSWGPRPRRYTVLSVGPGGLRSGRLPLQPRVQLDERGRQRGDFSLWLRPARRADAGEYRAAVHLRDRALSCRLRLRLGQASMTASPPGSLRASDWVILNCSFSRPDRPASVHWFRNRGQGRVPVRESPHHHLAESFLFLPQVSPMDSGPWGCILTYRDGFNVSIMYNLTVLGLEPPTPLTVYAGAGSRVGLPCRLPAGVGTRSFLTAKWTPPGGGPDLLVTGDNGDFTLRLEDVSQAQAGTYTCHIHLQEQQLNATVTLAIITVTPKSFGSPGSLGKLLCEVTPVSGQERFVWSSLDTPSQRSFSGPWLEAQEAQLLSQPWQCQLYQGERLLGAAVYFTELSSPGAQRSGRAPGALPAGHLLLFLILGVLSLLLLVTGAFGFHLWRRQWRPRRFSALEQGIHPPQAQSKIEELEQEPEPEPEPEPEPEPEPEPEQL
Sequence of human Tim3 on HEK293F cells (human) (Q8TDQ0 22-301): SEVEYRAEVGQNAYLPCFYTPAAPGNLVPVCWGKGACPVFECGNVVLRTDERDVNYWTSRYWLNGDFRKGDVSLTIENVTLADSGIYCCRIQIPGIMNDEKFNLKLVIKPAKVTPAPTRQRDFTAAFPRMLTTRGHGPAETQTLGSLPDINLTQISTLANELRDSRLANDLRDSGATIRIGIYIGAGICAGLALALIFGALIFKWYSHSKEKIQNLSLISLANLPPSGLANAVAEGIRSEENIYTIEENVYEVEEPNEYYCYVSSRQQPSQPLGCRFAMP
Sequence of full-length human CTLA4 expressed on cells (human) (P16410 36-223): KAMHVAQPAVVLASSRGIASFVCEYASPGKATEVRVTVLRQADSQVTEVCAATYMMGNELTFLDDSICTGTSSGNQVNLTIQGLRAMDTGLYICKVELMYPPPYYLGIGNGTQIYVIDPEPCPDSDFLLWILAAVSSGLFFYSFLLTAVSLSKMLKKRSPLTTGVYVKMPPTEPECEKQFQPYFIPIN
Sequence of full-length mouse CTLA4 expressed on HEK293F cells (mouse) (P09793 36-223): as the sequence (P09793 36-223 limits assumed) above
Sequence of human PD-L1 on HEK293F cells (human) (Q9NZQ7 19-290): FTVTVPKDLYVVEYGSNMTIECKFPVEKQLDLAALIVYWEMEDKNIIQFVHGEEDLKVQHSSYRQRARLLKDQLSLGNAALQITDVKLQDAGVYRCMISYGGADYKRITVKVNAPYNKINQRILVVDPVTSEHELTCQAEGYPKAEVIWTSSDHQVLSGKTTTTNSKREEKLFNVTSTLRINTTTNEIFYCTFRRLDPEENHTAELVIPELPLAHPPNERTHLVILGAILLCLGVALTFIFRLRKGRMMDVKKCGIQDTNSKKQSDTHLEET
Sequence of human B7H3 on HEK293F cells (human) (Q5ZPR3 29-534): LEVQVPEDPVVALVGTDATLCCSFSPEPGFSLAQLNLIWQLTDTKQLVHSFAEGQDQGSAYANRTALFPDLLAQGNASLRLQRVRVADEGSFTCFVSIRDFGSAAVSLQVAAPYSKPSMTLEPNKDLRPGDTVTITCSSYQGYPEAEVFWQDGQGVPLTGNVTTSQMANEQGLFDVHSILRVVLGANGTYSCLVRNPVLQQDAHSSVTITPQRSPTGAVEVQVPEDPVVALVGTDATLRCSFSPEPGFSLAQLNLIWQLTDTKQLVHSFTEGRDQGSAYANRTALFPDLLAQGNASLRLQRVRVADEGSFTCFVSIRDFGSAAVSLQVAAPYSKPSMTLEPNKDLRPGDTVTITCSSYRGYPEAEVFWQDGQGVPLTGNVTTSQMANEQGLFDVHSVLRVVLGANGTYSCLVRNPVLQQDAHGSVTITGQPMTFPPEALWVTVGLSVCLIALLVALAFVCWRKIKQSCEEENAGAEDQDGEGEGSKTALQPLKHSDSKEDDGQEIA
Sequence of human PD1 on HEK293F cells (human) (Q15116 25-288): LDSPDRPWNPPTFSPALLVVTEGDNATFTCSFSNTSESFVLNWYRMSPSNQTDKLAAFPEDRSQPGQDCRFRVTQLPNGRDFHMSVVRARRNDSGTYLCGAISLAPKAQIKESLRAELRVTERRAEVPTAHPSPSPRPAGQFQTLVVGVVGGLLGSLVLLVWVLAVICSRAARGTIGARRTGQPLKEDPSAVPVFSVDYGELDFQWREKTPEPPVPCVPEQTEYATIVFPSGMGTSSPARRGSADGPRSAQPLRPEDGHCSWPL
Sequence of CTLA4 on activated monkey T cells (chain, as listed by the source limits assumed): as the sequence (P16410 36-223) above, with S14N, I18T, L106M counted along it

% of cells in upper right quadrant (Q2) [1]: 1.79% | % of cells in upper right quadrant (Q2) [2]: 2.1% | % of cells in upper right quadrant (Q2) [3]: 0.99% | % of cells in upper right quadrant (Q2) [4]: 0.45% | Mean [4]: 48000 | % of cells in upper right quadrant (Q2) [5]: 0.17% | Mean [5]: 3550 | % of cells in upper right quadrant (Q2) [6]: 0.27% | Mean [6]: 36300 | % of cells in upper right quadrant (Q2) [7]: 0.055% | Mean [7]: 3200 | % of cells in upper right quadrant (Q2) [8]: 1.72% | % of cells in upper right quadrant (Q2) [9]: 1.06% | % of cells in upper right quadrant (Q2) [10]: 0.23 | Mean [10]: 3700 | % of cells in upper right quadrant (APC-positive) [11]: 0.034% | % of cells in upper right quadrant (APC-positive) [12]: 6.27% | % of cells in upper right quadrant (APC-positive) [13]: 1.98%
Substance: isotype control antibody (human IgG1)
